In the RNAGym collection of RNA variant scans (doi:10.1073/pnas.2313332121):

B1: TPR t1 (parent)
chain: GACCAAUCUGCCCUCAGAGCUCGAGAACAUCUUCGGAUGCAGAGGAGGCAGGCUUCGGUGGCGCGAUAGCGCCAACGUCCUCAACCUCCAAUGCAUCCCACCACAUGAUGAUGCCUGAAGAGCCUUGGUUUUUUG

Variants of: B1
Assay: polymerase ribozyme fitness, log enrichment relative to wild type (log ratio); higher = more active; in vitro selection for triplet polymerase activity
Summary of the method: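 Both subunits of a heterodimeric triplet polymerase ribozyme were given their own mutant library, built by PCR and transcribed. Each library was annealed with a biotinylated primer, the partner subunit and triplets, incubated frozen at −7 °C, and its extended constructs gel-excised, captured on streptavidin beads and amplified by RT-PCR, all in one round done in triplicate. Fitness is the logarithm of genotype enrichment relative to wild-type enrichment, with replicates averaged by inverse-variance weighting. That logarithm is base 2, and Illumina-sequenced genotypes needed ≥10 input reads and ≥1 read per output.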

Row | Variant | polymerase ribozyme fitness (log ratio)
1 | A6C G63U | -1.03
2 | A6C G69U U78C | 0.0885
3 | A6C G71C C79U | -0.784
4 | A6C G93A | -1.25
5 | A6C U7A C8A A29C U55A C88G C94U | -2.74
6 | A6C U9C A46C C62U C82U | -0.79
7 | A6C U30G G61U A84C U112A | -3.92
8 | A6C U30G G63A A91U A100G C104G U109G | -5.44
9 | A6C U81C U87G | -0.0503
10 | A6G A18C U54C | -2.19
11 | A6G A24C C88G C102A A111U G122C U133G | -6.51
12 | A6G A41G A50G C70U | -0.773
13 | A6G A46U | -1.37
14 | A6G A74U C76U C115A | -0.102
15 | A6G C8A U55A C62A | -0.384
16 | A6G C8G C12A C28A C56G U81C U112A | -4.51
17 | A6G C8G G69U | 0.471
18 | A6G C8U C98G | -4.61
19 | A6G C11A C34A G47A A111C | -5.04
20 | A6G C11A U14A C28A G69U U78C | -3.37
21 | A6G C11G A118U | 0.0523

Row | Variant | polymerase ribozyme fitness (log ratio)
22 | A6G C11G C13G C99A C102U | -5.35
23 | A6G C11G C70G A118U | -1.53
24 | A6G C11G G52U U59A G60C | -0.455
25 | A6G C11U G48C C64U G113A G117A | -7.08
26 | A6G C12U G58A G113C | -1.75
27 | A6G C12U G69C U112C C123A U131A | 0.491
28 | A6G C13G A111C U112A | -1.87
29 | A6G C13U G19U C56A | -3.79
30 | A6G C15U C56U G69U U112A G117A | -1.54
31 | A6G C28G C115G U125G | -3.74
32 | A6G C31A C64U C89G C123G | -6.4
33 | A6G C40U C56U G127C | -1.94
34 | A6G C40U G51U | -4.1
35 | A6G C62U C73U U112G | 0.725
36 | A6G C64U | 0.116
37 | A6G C72G C88U | -0.419
38 | A6G C80U C115G | -1.33
39 | A6G C97U | -0.751
40 | A6G C98U U125G | -3.71
41 | A6G C115A | 0.525
42 | A6G G10U C56A G57A G58A G69U C86U | -1.09

Row | Variant | polymerase ribozyme fitness (log ratio)
43 | A6G G17C | -4.39
44 | A6G G19U C70U | -4.25
45 | A6G G36U C80U C88U G110C C124U | -5.65
46 | A6G G39A | 0.16
47 | A6G G39A A68G C86U G117A | -5.73
48 | A6G G39A C86U G117A | -0.696
49 | A6G G39A C123U U133A | 0.797
50 | A6G G42C G52U | -2.37
51 | A6G G45C | -1.17
52 | A6G G45C G63C U81C | -1.8
53 | A6G G48U G52C | -2.21
54 | A6G G48U G63A | -0.619
55 | A6G G69A | -2.86
56 | A6G G69A C73A | -2.9
57 | A6G G69U G120U | 0.637
58 | A6G G71A | -0.397
59 | A6G G117A C124U | -0.162
60 | A6G U7A | 0.167
61 | A6G U9C C13G G61C C89U A90U C94U A105U A121G | -5.89
62 | A6G U87A U92C A95C C114U | -3.66
63 | A6G U87G A121C | 1.92

Row | Variant | polymerase ribozyme fitness (log ratio)
64 | A6G U112A | 1.64
65 | A6U A16U A50C A83C U129G | -3.64
66 | A6U A18U | -2.27
67 | A6U A27U A121G U130A | -0.823
68 | A6U A27U U81A | -3.93
69 | A6U A37G G71A | -0.537
70 | A6U A41C C79G G113C U133A | -4.49
71 | A6U A41G | 0.32
72 | A6U A41U G61A C62G U112A | -6.58
73 | A6U A43U U96A G122A | -2.28
74 | A6U A46G C53G G117U | -2.98
75 | A6U A46G C70U U133A | -1.52
76 | A6U A50G C97U C115U | -2.3
77 | A6U A50U G57C A75U | -0.743
78 | A6U A74G | -0.0819
79 | A6U A90U C98G C102U A108U C123G | -6.7
80 | A6U A121C | 1.91
81 | A6U C8A G44U G107A U112A | -6.05
82 | A6U C11G G48U C56U C64U A83C | -4.78
83 | A6U C11G G69U C76A U125G | -2.63
